Measured values from patent publication US20120316071A1 (published 2012).

T1: rHuman Erythropoietin R/Fc Chimera, CF (R&D Systems Cat#963-ER) (human, UniProt P19235 25-250)
T1 construct: Bought recombinant Fc chimera; also called EPO R; EPO R/Fc; not shown: Fc of the bought R&D Systems chimera
T1 sequence (looked up): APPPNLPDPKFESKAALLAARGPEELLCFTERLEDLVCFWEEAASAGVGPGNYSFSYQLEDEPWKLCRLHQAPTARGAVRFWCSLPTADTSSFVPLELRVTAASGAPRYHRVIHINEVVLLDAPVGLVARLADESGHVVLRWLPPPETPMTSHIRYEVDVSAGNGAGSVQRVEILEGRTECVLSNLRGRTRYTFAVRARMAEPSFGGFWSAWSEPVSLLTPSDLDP

T2: rHuman Erythropoietin R/Fc Chimera, CF (R&D Systems Cat#963-ER) (human, UniProt P19235 25-250)
T2 construct: Bought recombinant protein; also called EPO R; EPO R/Fc
T2 sequence (looked up): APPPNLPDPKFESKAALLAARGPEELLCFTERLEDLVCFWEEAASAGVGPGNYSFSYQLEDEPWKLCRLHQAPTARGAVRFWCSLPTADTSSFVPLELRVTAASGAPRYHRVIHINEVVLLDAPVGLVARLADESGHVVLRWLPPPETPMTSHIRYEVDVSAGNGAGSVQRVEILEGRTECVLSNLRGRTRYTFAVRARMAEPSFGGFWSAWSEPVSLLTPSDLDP


Assays:
[1] = biological target: T3, Recombinant Human DLL4 (delta-like protein 4) (human, UniProt Q9NR61 27-529); test: ECL (MSD) multispot assay; Fab 0.1 µM
T3 construct: Bought recombinant protein (R&D Systems Cat#1506-D4/CF); also called rHuman DLL4; Delta-like 4

[2] = biological target: T3, Recombinant Human DLL4 (delta-like …); test: ECL (MSD) multispot assay; Fab 0.01 µM
[3] = biological target: T3, Recombinant Human DLL4 (delta-like …); test: ECL (MSD) 96-well plate assay; plate coated with 15 µg/mL DLL4; Fab 0.004 µM
[4] = biological target: T3, Recombinant Human DLL4 (delta-like …); test: ECL (MSD) 96-well plate assay; plate coated with 30 µg/mL DLL4; Fab 0.02 µM
[5] = biological target: T4, rHuman ErbB2/Fc Chimera, CF (R&D Systems Cat#1129-ER) (human, UniProt P04626 23-652); test: ECL Multispot (MSD), antigen spotted on plate, Fab 0.1 uM;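 further: ratio compares each antigen's electrochemiluminescence to the blank within the same well, with a ratio of at least 4 counted as a binding Fab hit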
T4 construct: Bought recombinant Fc chimera; not shown: Fc of the bought R&D Systems chimera

[6] = biological target: T5, rHuman CD44/Fc Chimera, CF (R&D Systems Cat#3660-CD) (human, UniProt P16070 21-220); test: as above
T5 construct: Bought recombinant Fc chimera; not shown: Fc of the bought R&D Systems chimera

[7] = biological target: T6, rHuman Notch-1/Fc Chimera, CF (R&D Systems Cat#3647-TK) (human, UniProt P46531 19-526); test: as above
T6 construct: Bought recombinant Fc chimera; not shown: Fc of the bought R&D Systems chimera

[8] = biological target: T7, rHuman P-Cadherin/Fc Chimera, CF (R&D Systems Cat#861-PC) (human, UniProt P22223 108-654); test: as above
T7 construct: Bought recombinant Fc chimera; not shown: Fc of the bought R&D Systems chimera

[9] = biological target: T8, rHuman HGF R/c-MET/Fc Chimera, CF (R&D Systems Cat#358-MT/CF) (human, UniProt P08581 25-932); test: as above
T8 construct: Bought recombinant Fc chimera; also called HGF R/Fc; not shown: Fc of the bought R&D Systems chimera

[10] = biological target: T9, Recombinant Human DLL4 (R&D Systems Cat#1506-D4/CF) (human, UniProt Q9NR61 27-524); test: as above
T9 construct: Bought recombinant protein; also called delta-like protein 4; rHuman DLL4

[11] = biological target: T10, rHuman EGF R/Fc Chimera, CF (R&D Systems Cat#344-ER) (human, UniProt P00533 25-645); test: as above
T10 construct: Bought recombinant Fc chimera; not shown: Fc of the bought R&D Systems chimera

[12] = biological target: T11, rHuman IGF-1 sR, CF (R&D Systems Cat#391-GR) (human, UniProt P08069 31-932); test: as above
T11 construct: Bought recombinant soluble receptor; also called insulin-like growth factor-1 soluble receptor

[13] = biological target: T1, rHuman Erythropoietin R/Fc Chimera, CF …; test: as above
[14] = biological target: T12, Recombinant Human DLL4 (R&D Systems Cat#1506-D4/CF) (human, UniProt Q9NR61 27-524); test: ECL (MSD) binding assay, DLL4 signal divided by blank, repeat experiment
T12 construct: Bought recombinant protein; also called delta-like protein 4; rHuman DLL4

[15] = biological target: T12, Recombinant Human DLL4 (R&D Systems …); test: ECL Multispot (MSD) assay, antigen spotted on plate, 10 nM Fab;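 further: purified Fab bound to antigen spots for 1 h at 20 °C, then TAG detection antibody, electrochemiluminescence compared with each well's blank, ratio of 4 or more marks a hit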
[16] = biological target: T13, rHuman EGF R/Fc Chimera, CF (R&D Systems Cat#344-ER) (human, UniProt P00533 25-645); test: as above
T13 construct: Bought recombinant protein

[17] = biological target: T14, rHuman Notch-1/Fc Chimera, CF (R&D Systems Cat#3647-TK) (human, UniProt P46531 19-526); test: as above
T14 construct: Bought recombinant protein

[18] = biological target: T15, rHuman CD44/Fc Chimera, CF (R&D Systems Cat#3660-CD) (human, UniProt P16070 21-220); test: as above
T15 construct: Bought recombinant protein

[19] = biological target: T2, rHuman Erythropoietin R/Fc Chimera, CF …; test: as above
[20] = biological target: T16, rHuman HGF R/c-MET/Fc Chimera, CF (R&D Systems Cat#358-MT/CF) (human, UniProt P08581 25-932); test: as above
T16 construct: Bought recombinant protein; also called HGF R/Fc

[21] = biological target: T17, rHuman IGF-1 sR (insulin-like growth factor-1 soluble receptor), CF (R&D Systems Cat#391-GR) (human, UniProt P08069 31-932); test: as above
T17 construct: Bought recombinant soluble receptor

[22] = biological target: T18, rHuman ErbB2/Fc Chimera, CF (R&D Systems Cat#1129-ER) (human, UniProt P04626 23-652); test: as above
T18 construct: Bought recombinant protein

[23] = biological target: T19, rHuman P-Cadherin/Fc Chimera, CF (R&D Systems Cat#861-PC) (human, UniProt P22223 108-654); test: as above
T19 construct: Bought recombinant protein

[24] = biological target: T12, Recombinant Human DLL4 (R&D Systems …); test: ECL (MSD) binding assay, immobilised DLL4, repeat experiment
[25] = biological target: T8, rHuman HGF R/c-MET/Fc Chimera, CF (R&D …); test: ECL Multispot (MSD), antigen spotted on plate, Fab 0.01 uM;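 further: electrochemiluminescence of each antigen spot divided by the blank of the same well, with a value of 4 or above scoring the Fab as a binding hit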
[26] = biological target: T9, Recombinant Human DLL4 (R&D Systems …); test: as above
[27] = biological target: T10, rHuman EGF R/Fc Chimera, CF (R&D …); test: as above
[28] = biological target: T11, rHuman IGF-1 sR, CF (R&D Systems …); test: as above

Row | Signal/Noise [14] | ECL signal [15] | ECL signal [16] | ECL signal [17] | ECL signal [18] | ECL signal [19] | ECL signal [20] | ECL signal [21] | ECL signal [22] | ECL signal [23] | ECL signal [24] | Binder | also measured
1 |  |  |  |  |  |  |  |  |  |  |  | Fab VH1-46_IGHD6-6*01_IGHJ1*01 S104F & L6_IGKJ1*01 (Fab, V domains shown, Fab; The VH was cloned into Plasmid A (CH1, His6 and Flag tags) and the kappa VL into Plasmid C (kappa CL); expressed in E. coli) VH: QVQLVQSGAEVKKPGASVKVSCKASGYTFTSYYMHWVRQAPGQGLEWMGIINPSGGSTSYAQKFQGRVTMTRDTSTSTVYMELSSLRSEDTAVYYCAREEYSSFSAEYFQHWGQGTLVTVSS VL: not shown | ECL signal [1]: 27100; Signal/Noise [1]: 195; ECL signal [2]: 4280; Signal/Noise [2]: 15.3; Signal/Noise [3]: 134; Signal/Noise [4]: 76.5
2 |  |  |  |  |  |  |  |  |  |  |  | Fab VH1-46_IGHD6-6*01_IGHJ1*01 & L6_IGKJ1*01 (Fab, V domains shown, Germline 'Hit' Fab made in E. coli; The heavy chain variable region was cloned into Plasmid A (CH1, His6 and Flag tags) and the kappa light chain variable region into Plasmid C (kappa CL); also called Parent; parental) VH: QVQLVQSGAEVKKPGASVKVSCKASGYTFTSYYMHWVRQAPGQGLEWMGIINPSGGSTSYAQKFQGRVTMTRDTSTSTVYMELSSLRSEDTAVYYCAREEYSSSSAEYFQHWGQGTLVTVSS VL: not shown | ECL signal/noise ratio [5]: 1.2; ECL signal/noise ratio [6]: 1.8; ECL signal/noise ratio [7]: 1.7; ECL signal/noise ratio [8]: 1.6; ECL signal/noise ratio [9]: 1.3; ECL signal/noise ratio [10]: 40.9; ECL signal/noise ratio [11]: 1.2; ECL signal/noise ratio [12]: 1.6; ECL signal/noise ratio [13]: 1.2
3 | 530 | 138000 | 394 | 333 | 379 | 454 | 398 | 405 | 207 | 255 | 176000 | Fab VH1-46_IGHD6-6*01_IGHJ1*01 S102A/S103P/S104F/H111F S31A & L6_IGKJ1*01 (Fab, V domains shown, Fab as for m1 (CH1 with His6/Flag tags, kappa CL); also called APFF S31A) VH: QVQLVQSGAEVKKPGASVKVSCKASGYTFTAYYMHWVRQAPGQGLEWMGIINPSGGSTSYAQKFQGRVTMTRDTSTSTVYMELSSLRSEDTAVYYCAREEYAPFSAEYFQFWGQGTLVTVSS VL: not shown | 
4 | 225 | 27000 | 372 | 244 | 294 | 373 | 345 | 308 | 394 | 383 | 59500 | Fab VH1-46_IGHD6-6*01_IGHJ1*01 S102A/S103P/S104F/H111F Y33A & L6_IGKJ1*01 (Fab, V domains shown, Fab as for m1 (CH1 with His6/Flag tags, kappa CL); also called APFF Y33A) VH: QVQLVQSGAEVKKPGASVKVSCKASGYTFTSYAMHWVRQAPGQGLEWMGIINPSGGSTSYAQKFQGRVTMTRDTSTSTVYMELSSLRSEDTAVYYCAREEYAPFSAEYFQFWGQGTLVTVSS VL: not shown | 
5 | 404 | 140000 | 389 | 432 | 471 | 480 | 427 | 408 | 411 | 381 | 181000 | Fab VH1-46_IGHD6-6*01_IGHJ1*01 S102A/S103P/S104F/H111F T28A & L6_IGKJ1*01 (Fab, V domains shown, Fab as for m1 (CH1 with His6/Flag tags, kappa CL); also called APFF T28A) VH: QVQLVQSGAEVKKPGASVKVSCKASGYAFTSYYMHWVRQAPGQGLEWMGIINPSGGSTSYAQKFQGRVTMTRDTSTSTVYMELSSLRSEDTAVYYCAREEYAPFSAEYFQFWGQGTLVTVSS VL: not shown | 
6 |  |  |  |  |  |  |  |  |  |  |  | Fab VH1-46_IGHD6-6*01_IGHJ1*01 S104F & L6_IGKJ1*01 (Fab, V domains shown, Fab made in E. coli; The heavy chain variable region was cloned into Plasmid A (CH1, His6 and Flag tags) and the kappa light chain variable region into Plasmid C (kappa CL)) VH: QVQLVQSGAEVKKPGASVKVSCKASGYTFTSYYMHWVRQAPGQGLEWMGIINPSGGSTSYAQKFQGRVTMTRDTSTSTVYMELSSLRSEDTAVYYCAREEYSSFSAEYFQHWGQGTLVTVSS VL: not shown | ECL signal/noise ratio [9]: 1.6; ECL signal/noise ratio [10]: 195; ECL signal/noise ratio [11]: 2; ECL signal/noise ratio [12]: 1.7; ECL signal/noise ratio [25]: 0.6; ECL signal/noise ratio [26]: 15.3; ECL signal/noise ratio [27]: 0.8; ECL signal/noise ratio [28]: 0.6
7 | 503 | 140000 | 427 | 270 | 439 | 428 | 413 | 356 | 272 | 275 | 178000 | Fab VH1-46_IGHD6-6*01_IGHJ1*01 S102A/S103P/S104F/H111F T30A & L6_IGKJ1*01 (Fab, V domains shown, Fab as for m1 (CH1 with His6/Flag tags, kappa CL); also called APFF T30A) VH: QVQLVQSGAEVKKPGASVKVSCKASGYTFASYYMHWVRQAPGQGLEWMGIINPSGGSTSYAQKFQGRVTMTRDTSTSTVYMELSSLRSEDTAVYYCAREEYAPFSAEYFQFWGQGTLVTVSS VL: not shown | 
8 |  |  |  |  |  |  |  |  |  |  |  | Fab VH1-46_IGHD6-6*01_IGHJ1*01 S104H & L6_IGKJ1*01 (Fab, V domains shown, Fab; The VH was cloned into Plasmid A (CH1, His6 and Flag tags) and the kappa VL into Plasmid C (kappa CL); expressed in E. coli) VH: QVQLVQSGAEVKKPGASVKVSCKASGYTFTSYYMHWVRQAPGQGLEWMGIINPSGGSTSYAQKFQGRVTMTRDTSTSTVYMELSSLRSEDTAVYYCAREEYSSHSAEYFQHWGQGTLVTVSS VL: not shown | ECL signal [1]: 20100; Signal/Noise [1]: 88.3; ECL signal [2]: 4160; Signal/Noise [2]: 27; Signal/Noise [3]: 79.2; Signal/Noise [4]: 24.9
